In article PMC5674874 (The Journal of Cell Biology, 2017):

Tests used:
[1] = target: T1, Stu2-WT-Flag (S. cerevisiae, UniProt P46675 1-888); assay: SEC
T1 sequence (looked up): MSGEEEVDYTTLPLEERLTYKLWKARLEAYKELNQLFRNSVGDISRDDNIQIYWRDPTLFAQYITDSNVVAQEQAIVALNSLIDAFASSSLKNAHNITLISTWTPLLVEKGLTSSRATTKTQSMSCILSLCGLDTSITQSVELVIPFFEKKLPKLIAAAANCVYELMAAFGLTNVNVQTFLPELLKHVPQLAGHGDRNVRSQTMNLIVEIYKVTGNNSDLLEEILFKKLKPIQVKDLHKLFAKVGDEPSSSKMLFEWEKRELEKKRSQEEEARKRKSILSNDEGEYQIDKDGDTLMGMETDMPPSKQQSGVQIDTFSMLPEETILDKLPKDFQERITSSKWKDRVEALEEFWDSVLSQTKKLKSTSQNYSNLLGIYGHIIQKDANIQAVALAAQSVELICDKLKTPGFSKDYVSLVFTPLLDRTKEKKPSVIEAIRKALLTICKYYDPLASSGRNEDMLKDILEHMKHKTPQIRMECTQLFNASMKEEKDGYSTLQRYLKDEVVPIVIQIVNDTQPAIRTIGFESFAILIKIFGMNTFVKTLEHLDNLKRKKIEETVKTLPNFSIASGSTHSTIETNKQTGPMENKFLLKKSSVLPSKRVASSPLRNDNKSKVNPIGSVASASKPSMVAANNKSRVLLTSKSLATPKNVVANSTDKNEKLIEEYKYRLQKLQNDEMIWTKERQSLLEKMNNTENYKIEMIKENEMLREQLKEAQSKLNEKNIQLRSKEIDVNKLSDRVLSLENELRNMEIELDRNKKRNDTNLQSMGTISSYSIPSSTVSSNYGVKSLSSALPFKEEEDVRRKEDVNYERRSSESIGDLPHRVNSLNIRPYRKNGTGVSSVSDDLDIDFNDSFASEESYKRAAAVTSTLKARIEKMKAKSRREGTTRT

[2] = target: T2, Stu2-2D-Flag (S. cerevisiae, UniProt P46675 1-888, S813D | S815D); assay: SEC
T2 sequence (looked up): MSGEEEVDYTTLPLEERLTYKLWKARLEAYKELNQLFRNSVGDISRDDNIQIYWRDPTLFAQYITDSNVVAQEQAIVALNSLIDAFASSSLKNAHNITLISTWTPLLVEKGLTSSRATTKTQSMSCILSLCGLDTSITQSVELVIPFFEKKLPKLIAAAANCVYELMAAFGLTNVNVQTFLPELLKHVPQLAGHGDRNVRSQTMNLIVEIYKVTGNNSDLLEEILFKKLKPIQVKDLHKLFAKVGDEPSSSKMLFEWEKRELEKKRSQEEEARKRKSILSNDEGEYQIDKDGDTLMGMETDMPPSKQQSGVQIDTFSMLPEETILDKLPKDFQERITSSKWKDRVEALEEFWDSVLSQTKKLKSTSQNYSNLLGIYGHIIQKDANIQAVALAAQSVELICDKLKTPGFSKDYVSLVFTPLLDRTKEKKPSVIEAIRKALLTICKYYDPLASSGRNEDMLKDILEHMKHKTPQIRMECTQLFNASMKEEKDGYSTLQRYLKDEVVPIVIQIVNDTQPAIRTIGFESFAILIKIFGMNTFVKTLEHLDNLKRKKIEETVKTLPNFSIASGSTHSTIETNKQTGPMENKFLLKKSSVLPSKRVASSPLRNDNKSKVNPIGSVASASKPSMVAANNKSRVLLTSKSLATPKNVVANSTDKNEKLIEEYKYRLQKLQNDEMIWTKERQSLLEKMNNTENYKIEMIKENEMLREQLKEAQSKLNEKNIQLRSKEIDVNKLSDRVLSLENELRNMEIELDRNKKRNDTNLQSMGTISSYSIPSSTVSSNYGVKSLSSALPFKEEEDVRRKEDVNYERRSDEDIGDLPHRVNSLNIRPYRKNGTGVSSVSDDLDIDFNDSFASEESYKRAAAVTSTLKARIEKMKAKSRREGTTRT

B1: Bik1 (recombinant, from StrepII-TEV-Bik1) (natural protein, S. cerevisiae, UniProt P11709 1-440, looked up)
chain: MDRYQRKIGCFIQIPNLGRGQLKYVGPVDTKAGMFAGVDLLANIGKNDGSFMGKKYFQTEYPQSGLFIQLQKVASLIEKASISQTSRRTTMEPLSIPKNRSIVRLTNQFSPMDDPKSPTPMRSFRITSRHSGNQQSMDQEASDHHQQQEFGYDNREDRMEVDSILSSDRKANHNTTSDWKPDNGHMNDLNSSEVTIELREAQLTIEKLQRKQLHYKRLLDDQRMVLEEVQPTFDRYEATIQEREKEIDHLKQQLELERRQQAKQKQFFDAENEQLLAVVSQLHEEIKENEERNLSHNQPTGANEDVELLKKQLEQLRNIEDQFELHKTKWAKEREQLKMHNDSLSKEYQNLSKELFLTKPQDSSSEEVASLTKKLEEANEKIKQLEQAQAQTAVESLPIFDPPAPVDTTAGRQQWCEHCDTMGHNTAECPHHNPDNQQFF
B1: binds [1]; binds [2].
